Experimental data: doi:10.1101/2025.05.02.651858

Molecular target: ϕC31 integrase^S12A-RDF fusion protein (Streptomyces phage ϕC31) (UniProt Q9T221)
Assay: SEC-MALS

Q: “ϕC31 integrase^S12A-RDF fusion protein (from UniProt Q9T221 1-605)” was tested. Which stoichiometry N did it give?
A: 4
